B1: CPEB3 Ribozyme (parent)
chain: UAACAGGGGGCCACAGCAGAAGCGUUCACGUCGCAGCCCCUGUCAGAUUCUGGUGAAUCUGCGAAUUCUGCUGUAUAUCUC

In the data set the parent is B1. Briefly: self-cleavage, relative activity (ratio to wild type); higher = more cleavage; in vitro, sequencing. The gist of the method: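 Relative activity compares each variant's cleaved/total read fraction with that of the unmutated ribozyme. To get these fractions, barcoded CPEB3 ribozyme libraries from rounds of error-prone PCR were transcribed with T7 RNA polymerase for 5 hours at 37°C and then given 15 min of DNase I treatment before EDTA was added. The RNAs were reverse transcribed with template switching and sequenced on Illumina, and DNA sequencing linked barcodes to variants. A minimum of 5 reads applied, and three batches were averaged.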
For the variant C17A U78C, the self-cleavage is 0.21.
Then G16A A56U, with 0.13.
Then G16A A56G, with 0.4; and A15U C44U, with 0.22; and A15U C71U, with 0.33.
The same measure for G16A U41A: 0.1; for G16A U41G: 0.12.
On to G16A U41C, for which the self-cleavage is 0.49.
Then C17G A64U, with 0.17; and C17G A64G, with 0.35.
The same measure for A15U U76C: 0.88; for A15U U76A: 1.17.
Then C17A U60A, with 0.26.
Take C17A U60C: the self-cleavage is 0.18.
With G16U A28G, the self-cleavage is 0.18.
The same measure for G16U A28U: 0.26.
Then A15U C68U, with 0.26.
Then C17U G36A, with 0.17; and C17G A35U, with 0.32.
Consider C17G A35G, for which the self-cleavage amounted to 1.04.
The same measure for G16C U41C: 0.42; for C17G A28G: 0.16.
Then C17G A28C, with 0.21.
For the variant G16A A77G, the self-cleavage came to 0.54.
Consider G16A G30C, for which the self-cleavage worked out at 0.05.
The same measure for G16A G30A: 0.06; for C17G U25G: 0.06.
The same measure for C17G U25A: 0.09; for C17G U25C: 0.11; for G16C A28U: 0.24.
Consider G16C A28G, for which the self-cleavage amounted to 0.15.
The same measure for C17G A57G: 0.51; for A15U C50G: 0.26.
Then G16A U54C, with 0.66; and G16C A45G, with 0.42; and G16C A45U, with 0.13.
The same measure for C17U A21G: 0.32.
For C17U A21C, the self-cleavage was determined as 0.12.
Regarding G16C G22C, the self-cleavage came out at 0.07.
Then C17A U43C, with 0.32.
Then C17G U41G, with 0.08; and C17G U41A, with 0.25; and G16A U49A, with 0.4.
For the variant G16C A57G, the self-cleavage came out at 0.57.
For A15U U80C, the self-cleavage stood at 1.03.
Then A15U U80A, with 1.01; and G16C G24C, with 0.2; and C17A U67C, with 0.44.
For the variant A15U U74G, the self-cleavage was found to be 0.97.
Then A15U U74A, with 1.02; and A15U U74C, with 0.97; and G16U A47G, with 0.32.
Then G16U A47U, with 0.16.
The same measure for G16U G61A: 0.18; for C17G U78C: 0.48.
Consider G16C U72A, for which the self-cleavage came to 0.3.
The same measure for G16U A57G: 0.26; for G16C A18U: 0.28.
Then C17U G24C, with 0.11; and G16C A35G, with 0.83; and G16A U58A, with 0.12.
The same measure for A15U C62A: 0.14; for A15U C62U: 0.18; for G16C U31C: 0.18.
Consider A15U U54G, for which the self-cleavage is 0.59.
Then A15U U54A, with 0.8; and A15U U54C, with 0.77.
Turning to C17G C34G, the self-cleavage amounted to 0.36.
The same measure for C17G A56G: 0.38; for G16A A28U: 0.21.
The same measure for G16A A28G: 0.25.
Then A15U G63A, with 0.67; and A15U G63U, with 0.93.
C17U G61U: the self-cleavage is 0.27.
Then G16C C37U, with 0.16.
The same measure for G16C U78C: 0.22.
Then C17G C79U, with 0.27; and G16U U31C, with 0.19; and A15U U43C, with 0.41.
Turning to A15U U43G, the self-cleavage came out at 0.25.
Then A15U U43A, with 0.88.
Then G16U U25A, with 0.2.
The same measure for A15U U41A: 0.17.
Turning to A15U U41G, the self-cleavage turned out to be 0.26.
As for A15U U41C, the self-cleavage came out at 0.92.
The same measure for G16C A64U: 0.28.
Regarding G16U U43C, the self-cleavage is 0.15.
The same measure for A15U U60A: 0.32; for A15U U60C: 0.31; for G16C U48G: 0.18.
The same measure for G16U U69C: 0.13.
The same measure for G16U U69A: 0.22.
Take A15U C81U: the self-cleavage is 1.14.
Then A15U C81A, with 0.32.
Then G16C A21U, with 0.1.
The same measure for G16C A21G: 0.32.
For the variant A15U G33A, the self-cleavage was determined as 0.17.
Then A15U G33U, with 0.52; and G16U U67A, with 0.19.
Then G16U U67C, with 0.09; and A15U G52A, with 1.05.
Then G16A U60C, with 0.19; and A15U U49G, with 0.36; and A15U U49A, with 0.64.
In the case of A15U U49C, the self-cleavage is 0.15.
The same measure for G16U G36A: 0.37; for G16A A45C: 0.14; for G16A A45G: 0.45.
The same measure for C17G U49C: 0.06; for C17A A21G: 0.25; for C17U C34A: 0.16.
Then A15U G55A, with 0.46.
Regarding A15U G55U, the self-cleavage is 0.68.
For the variant G16A C27A, the self-cleavage was 0.17.
The same measure for C17U C62A: 0.11; for A15U G30U: 0.15; for A15U G30C: 0.15.
Then C17A U80C, with 0.24.
The same measure for C17A U80G: 0.23; for C17A A28G: 0.22.
Consider A15U U25G, for which the self-cleavage was determined as 0.46.
The same measure for A15U U25A: 0.2; for A15U U25C: 0.25.
Then G16A U31A, with 0.19; and G16A U31G, with 0.47.
Then C17G U48C, with 0.2.
With C17U U25A, the self-cleavage was determined as 0.27.
The same measure for C17U U25C: 0.25; for A15U G16A: 0.57.
The same measure for A15U G16U: 0.3; for C17U C38A: 0.39; for C17U A75U: 0.81.
The same measure for G16A U51A: 0.57.
Regarding G16A U51C, the self-cleavage was determined as 0.18.
Then G16A U72C, with 0.79.
As to G16A U72G, the self-cleavage is 0.16.
Then G16A U72A, with 0.36; and G16A A35G, with 1.02.
Then A15U G36C, with 0.13.
Consider A15U G36U, for which the self-cleavage is 0.08.
The same measure for C17U A18G: 0.23; for G16U U80A: 0.52; for G16U U80C: 0.7.
Consider G16C G36U, for which the self-cleavage came to 0.17.
C17U A45G: the self-cleavage came to 0.65.
The same measure for C17U A57G: 0.51; for G16C C50U: 0.18; for G16A A20U: 0.16.
The same measure for G16A A20G: 0.24; for G16A A57G: 0.27; for C17A U49C: 0.19.
In the case of C17U U26A, the self-cleavage was determined as 0.6.
Then C17U U26C, with 0.29.
The same measure for A15U U72G: 0.91; for A15U U72C: 0.87.
The same measure for A15U U72A: 1.09; for A15U U67C: 0.22.
For the variant A15U U67A, the self-cleavage came to 0.2.
For the variant A15U U67G, the self-cleavage stood at 0.11.
Then A15U G19C, with 0.17.
Then A15U G19U, with 0.23; and C17A C62G, with 0.17.
Regarding C17U A20G, the self-cleavage stood at 0.45.
Then G16C U76C, with 0.41.
For C17A A20G, the self-cleavage was determined as 0.3.
With G16A U25C, the self-cleavage turned out to be 0.18.
The same measure for G16A U25A: 0.36.

Values taken from the RNAGym collection of RNA variant scans (doi:10.1093/nar/gkz1192).
